{"source": "patent US20180051287A1", "about": "(VITRISA THERAPEUTICS, published 2018)", "target": "human complement Factor D present in C1q-depleted human serum (human, UniProt P00746 26-253)", "sequence (P00746 26-253 limits assumed)": "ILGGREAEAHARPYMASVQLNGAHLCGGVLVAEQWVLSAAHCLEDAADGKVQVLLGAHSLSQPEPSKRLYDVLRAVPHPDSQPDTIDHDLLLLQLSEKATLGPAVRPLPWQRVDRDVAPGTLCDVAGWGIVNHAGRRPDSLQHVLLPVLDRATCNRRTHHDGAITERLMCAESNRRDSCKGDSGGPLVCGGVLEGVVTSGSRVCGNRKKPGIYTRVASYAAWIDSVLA", "experiment": "cell-based or functional assay", "data": [{"binder": "anti-fD Fab with an amino acid sequence of heavy chain variable region according to SEQ ID NO: 71 and light chain variable region according to SEQ ID NO: 72 (Fab) heavy: EVQLVQSGPELKKPGASVKVSCKASGYTFTNYGMNWVRQAPGQGLEWMGWINTYTGETTYADDFKGRFVFSLDTSVSTAYLQISSLKAEDTAVYYCERGGVNNWGQGTLVTVSSASTKGPSVFPLAPSSKSTSGGTAALGCLVKDYFPEPVTVSWNSGALTSGVHTFPAVLQSSGLYSLSSVVTVPSSSLGTQTYICNVNHKPSNTKVDKKVEPKSCDKTHT light: DIQVTQSPSSLSASVGDRVTITCITSTDIDDDMNWYQQKPGKVPKLLISGGNTLRPGVPSRFSGSGSGTDFTLTISSLQPEDVATYYCLQSDSLPYTFGQGTKVEIKRTVAAPSVFIFPPSDEQLKSGTASVVCLLNNFYPREAKVQWKVDNALQSGNSQESVTEQDSKDSTYSLSSTLTLSKADYEKHKVYACEVTHQGLSSPVTKSFNRGEC", "values": [{"measurement": "IC50 inhibiting alternative complement in human serum (fD-dependent lysis of rabbit red blood cells)", "value": 3.3, "unit": "nM"}]}]}
